According to patent publication US20230220093A1 (published 2023):

T1: recombinant human CD40L (rhCD40L-his) (human, UniProt P29965 113-261, limits assumed)
T1 construct: The construct is purified by IMAC and named rhCD40L-his; also called rhCD40L antigen; soluble CD40L
T1 sequence (looked up): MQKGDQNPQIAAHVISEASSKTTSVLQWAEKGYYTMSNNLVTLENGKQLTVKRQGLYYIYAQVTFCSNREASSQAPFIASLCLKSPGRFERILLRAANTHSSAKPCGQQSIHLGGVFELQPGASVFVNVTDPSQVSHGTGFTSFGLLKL

T2: cellular membrane CD40L expressed on D1.1 cells (CRL-10915) (UniProt P29965 1-261, limits assumed)
T2 construct: whole, on cells; also called mCD40L; cell membrane CD40L
T2 sequence (looked up): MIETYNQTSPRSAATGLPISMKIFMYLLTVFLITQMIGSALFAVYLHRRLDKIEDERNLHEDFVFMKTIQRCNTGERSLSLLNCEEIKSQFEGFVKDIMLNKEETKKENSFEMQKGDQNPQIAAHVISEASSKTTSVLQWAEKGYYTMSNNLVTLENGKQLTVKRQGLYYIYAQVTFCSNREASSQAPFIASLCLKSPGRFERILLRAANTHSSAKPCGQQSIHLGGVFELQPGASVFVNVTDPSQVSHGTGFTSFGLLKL


Key:
[1] = target: T3, recombinant human TNF-α protein (BioLegend) (human, UniProt P01375 77-233); test: BLI (Octet RED), TNF-α immobilised on AR2G biosensor
T3 construct: also called soluble TNF-α; recombinant soluble TNF-α protein
Description: (§1) The purified antibodies were continuously treated in a 1× kinetic buffer at pH 7.4 for two-fold dilution.

[2] = target: T3, recombinant human TNF-α protein …; test: cell-based or functional assay
[3] = target: T4, human serum albumin (HSA) (Sigma-Aldrich) (human, UniProt P02768 25-609); test: BLI (Octet RED), HSA immobilised on AR2G biosensor
Description: as §1

[4] = target: T1, recombinant human CD40L (rhCD40L-his); test: BLI (Octet RED), CD40L immobilised on AR2G biosensor
Description: as §1

[5] = target: T1, recombinant human CD40L (rhCD40L-his); test: ELISA, CD40L coated, anti-human Fd-HRP
Description: HRP-conjugated goat anti-human Fd antibodies were used as secondary antibodies.

[6] = target: T4, human serum albumin (HSA) …; test: BLI (Octet RED), HSA immobilised on AR2G biosensor, first run
Protocol: (§2) The binding and dissociation kinetics were obtained using Octet QK software. Binding rate constants were calculated such that the observed binding curves are fitted to a 1:1 binding model.

[7] = target: T4, human serum albumin (HSA) …; test: BLI (Octet RED), second run
Protocol: as §2

[8] = target: T4, human serum albumin (HSA) …; test: BLI (Octet RED), average of two runs
Protocol: as §2

[9] = target: T4, human serum albumin (HSA) …; test: BLI (Octet RED)
Protocol: as §2

[10] = target: T2, cellular membrane CD40L expressed on …; test: flow cytometry on D1.1 cells, anti-human kappa-FITC

T3 sequence (P01375 77-233 limits assumed): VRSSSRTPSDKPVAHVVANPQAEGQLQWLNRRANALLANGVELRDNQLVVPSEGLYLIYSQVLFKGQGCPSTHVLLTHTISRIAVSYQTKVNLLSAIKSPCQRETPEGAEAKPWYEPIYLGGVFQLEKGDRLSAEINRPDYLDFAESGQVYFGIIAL

| Binder | Kd [1] | koff [1] | kon [1] | IC50, HEK-Blue reporter (SEAP), soluble TNF-α 10 ng/ml (FIG. 22B) [2] | IC50, inhibition of TNF-α mediated cytotoxicity, L929 mouse cells, HSA present (CCK-8) [2] | Kd [3] | koff [3] | kon [3] | Kd [4] | koff [4] | kon [4] | fold lower binding capacity against anti-human CD40L IgG1 (ruplizumab) [5] | Kd [6] | Kd [7] | Kd [8] | koff [8] | kon [8] | fold of KD against SL335-HSA KD [9] | binding result [10] |
| --- | --- | --- | --- | --- | --- | --- | --- | --- | --- | --- | --- | --- | --- | --- | --- | --- | --- | --- | --- |
| APB-B1a, (anti-CD40L scFv)2-(anti-HSA Fab)-(anti-TNF-α Fv) (bispecific antibody, also called APB-1a; (scFv)2-Fab-Fv (certolizumab)) heavy: DIVLTQSPATLSVSPGERATISCRASQRVSSSTYSYMHWYQQKPGQPPKLLIKYASNLESGVPARFSGSGSGTDFTLTISSVEPEDFATYYCQHSWEIPPTFGQGTKLEIKRGGGGSGGGGSGGGGSQVQLVQSGAEVVKPGASVKLSCKASGYIFTSYYMYWVKQAPGQGLEWIGEINPSNGDTNFNEKFKSKATLTVDKSASTAYMELSSLRSEDTAVYYCTRSDGRNDMDSWGQGTLVTVSSGGGGSGGGGSGGGGSQVQLVQSGGGPVKPGGSLRLSCAASGFMFRAYSMNWVRQAPGKGLEWVSSISSSGRYIHYADSVKGRFTISRDNAKNSLYLQMNSLRAEDTAVYYCARETVMAGKALDYWGQGTLVTVSSASTKGPSVFPLAPSSKSTSEGTAALGCLVKDYFPEPVTVSWNSGALTSGVHTFPAVLQSSGLYSLSSVVTVPSSSLGTQTYICNVNHKPSNTKVDKKVEPKSSGGGGSGGGGSGGGGSEVQLVESGGGLVQPGGSLRLSCAASGYVFTDYGMNWVRQAPGKGLEWMGWINTYIGEPIYADSVKGRFTFSLDTSKSTAYLQMNSLRAEDTAVYYCARGYRSYAMDYWGQGTLVTVSS light: DIVLTQSPATLSVSPGERATISCRASQRVSSSTYSYMHWYQQKPGQPPKLLIKYASNLESGVPARFSGSGSGTDFTLTISSVEPEDFATYYCQHSWEIPPTFGQGTKLEIKRGGGGSGGGGSGGGGSQVQLVQSGAEVVKPGASVKLSCKASGYIFTSYYMYWVKQAPGQGLEWIGEINPSNGDTNFNEKFKSKATLTVDKSASTAYMELSSLRSEDTAVYYCTRSDGRNDMDSWGQGTLVTVSSGSTSGSGKPGSGEGSTKGDIVLTQSPGTLSLSPGETATLSCRASQSVGSNLAWYQQKPGQAPRLLIYGASTGATGVPARFSGSRSGTDFTLTITSLQPEDFATYYCQQYYSFLAKTFGQGTQLEIKRTVAAPSVFIFPPSDEQLKSGTASVVCLLNNFYPREAKVQWKVDNALQSGNSQESVTEQDSKDSTYSLSNTLTLSKADYEKHKVYACEVTHQGLSSPVTKSFNRGESGGGGSGGGGSGGGGSDIQMTQSPSSLSASVGDRVTITCKASQNVGTNVAWYQQKPGKAPKALIYSASFLYSGVPYRFSGSGSGTDFTLTISSLQPEDFATYYCQQYNIYPLTFGQGTKVEIKR | 0.164 nM | 3.82e-05 s⁻¹ | 230000 M⁻¹ s⁻¹ | 3.05 nM | 5.3 nM | 0.765 nM | 0.00042 s⁻¹ | 549000 M⁻¹ s⁻¹ | 0.192 nM | 0.000113 s⁻¹ | 590000 M⁻¹ s⁻¹ | ~1.5 fold | – | – | – | – | – | – | – |
| APB-A1, recombinant antibody (anti-CD40L scFv)2-anti-HSA Fab (bispecific antibody, also called (anti-hu5c8 scFv)2-SL335; (scFv)2-Fab) heavy: DIVLTQSPATLSVSPGERATISCRASQRVSSSTYSYMHWYQQKPGQPPKLLIKYASNLESGVPARFSGSGSGTDFTLTISSVEPEDFATYYCQHSWEIPPTFGGGTKLEIKRGGGGSGGGGSGGGGSQVQLVQSGAEVVKPGASVKLSCKASGYIFTSYYMYWVKQAPGQGLEWIGEINPSNGDTNFNEKFKSKATLTVDKSASTAYMELSSLRSEDTAVYYCTRSDGRNDMDSWGQGTLVTVSSGGGGSGGGGSGGGGSQVQLVQSGGGPVKPGGSLRLSCAASGFMFRAYSMNWVRQAPGKGLEWVSSISSSGRYIHYADSVKGRFTISRDNAKNSLYLQMNSLRAEDTAVYYCARETVMAGKALDYWGQGTLVTVSSASTKGPSVFPLAPSSKSTSEGTAALGCLVKDYFPEPVTVSWNSGALTSGVHTFPAVLQSSGLYSLSSVVTVPSSSLGTQTYICNVNHKPSNTKVDKKVEPKSS light: DIVLTQSPATLSVSPGERATISCRASQRVSSSTYSYMHWYQQKPGQPPKLLIKYASNLESGVPARFSGSGSGTDFTLTISSVEPEDFATYYCQHSWEIPPTFGGGTKLEIKRGGGGSGGGGSGGGGSQVQLVQSGAEVVKPGASVKLSCKASGYIFTSYYMYWVKQAPGQGLEWIGEINPSNGDTNFNEKFKSKATLTVDKSASTAYMELSSLRSEDTAVYYCTRSDGRNDMDSWGQGTLVTVSSGSTSGSGKPGSGEGSTKGDIVLTQSPGTLSLSPGETATLSCRASQSVGSNLAWYQQKPGQAPRLLIYGASTGATGVPARFSGSRSGTDFTLTITSLQPEDFATYYCQQYYSFLAKTFGQGTQLEIKRTVAAPSVFIFPPSDEQLKSGTASVVCLLNNFYPREAKVQWKVDNALQSGNSQESVTEQDSKDSTYSLSNTLTLSKADYEKHKVYACEVTHQGLSSPVTKSFNRGES | – | – | – | – | – | – | – | – | – | – | – | – | 0.748 nM | 0.628 nM | 0.688 nM | 0.00056 s⁻¹ | 804000 M⁻¹ s⁻¹ | ~2.6 fold | – |
| SL335 Fab (anti-HSA Fab) (Fab, V domains shown, also called anti-HSA Fab (SL335)) VH: QVQLVQSGGGPVKPGGSLRLSCAASGFMFRAYSMNWVRQAPGKGLEWVSSISSSGRYIHYADSVKGRFTISRDNAKNSLYLQMNSLRAEDTAVYYCARETVMAGKALDYWGQGTLVTVSS VL: DIVLTQSPGTLSLSPGETATLSCRASQSVGSNLAWYQQKPGQAPRLLIYGASTGATGVPARFSGSRSGTDFTLTITSLQPEDFATYYCQQYYSFLAKTFGQGTQLEIKR | – | – | – | – | – | 0.286 nM | 0.000288 s⁻¹ | 1.01e+06 M⁻¹ s⁻¹ | – | – | – | – | – | – | – | – | – | – | no binding |
